How the values were obtained:
Conditions in all cases: protein: recombinant; tags: C-terminal His6 (pETM13); blunt
P150 721-860 (WHD) [1] = target: T1, P150 721-860 (WHD) (Homo sapiens, UniProt Q13111 721-860); assay: EMSA; 21 uM DNA, 0-15 molar ratio, EtBr; EMSA: 20 mM Tris-HCl, 100 mM NaCl, 1 mM DTT, pH 7.5, 45 min on ice; 6% PAGE in 0.5X TBE on ice
P150 721-860 (WHD) [2] = target: T1, P150 721-860 (WHD); assay: EMSA; about 21 uM DNA; EMSA: 20 mM Tris-HCl, 100 mM NaCl, 1 mM DTT, pH 7.5, 45 min on ice; 6% PAGE in 0.5X TBE on ice
P150 721-860 (WHD) [3] = target: T1, P150 721-860 (WHD); assay: EMSA; 1 uM DNA, Sybr Gold; fit with Hill slope; EMSA: 20 mM Tris-HCl, 100 mM NaCl, 1 mM DTT, pH 7.5, 45 min on ice; 6% PAGE in 0.5X TBE on ice
P150 575-860 (ED + WHD) = P150 575-860 (ED + WHD) (Homo sapiens, UniProt Q13111 575-860); assay: EMSA; 2 uM DNA, 0-25 molar ratio; no complex detected; EMSA: 20 mM Tris-HCl, 100 mM NaCl, 1 mM DTT, pH 7.5, 45 min on ice; 6% PAGE in 0.5X TBE on ice
P150 575-860 (ED + WHD), sequence (Q13111 575-860): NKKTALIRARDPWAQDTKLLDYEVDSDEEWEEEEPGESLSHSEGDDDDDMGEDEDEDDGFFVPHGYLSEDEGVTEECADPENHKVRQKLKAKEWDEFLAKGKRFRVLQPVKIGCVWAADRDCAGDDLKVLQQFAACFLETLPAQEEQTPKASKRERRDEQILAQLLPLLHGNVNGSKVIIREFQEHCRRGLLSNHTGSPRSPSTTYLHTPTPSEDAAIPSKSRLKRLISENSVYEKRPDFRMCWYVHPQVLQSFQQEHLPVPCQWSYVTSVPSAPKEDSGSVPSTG

T1 sequence (Q13111 721-860): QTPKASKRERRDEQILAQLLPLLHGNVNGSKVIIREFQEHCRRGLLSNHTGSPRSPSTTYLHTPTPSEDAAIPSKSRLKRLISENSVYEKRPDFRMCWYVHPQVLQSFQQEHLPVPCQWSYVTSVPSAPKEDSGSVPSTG

B1: 16 bp dsDNA (dsDNA)
DNA 1: TGCTACCGATCGATAC
DNA 2: GTATCGATCGGTAGCA
B1: binds (P150 721-860 (WHD) [1]).

B2: 16 bp AT rich dsDNA (dsDNA)
DNA 1: ATAATCGATATTCGTT
DNA 2: AACGAATATCGATTAT
B2: binds (P150 721-860 (WHD) [2]).

B3: 16 bp GC rich dsDNA (dsDNA)
DNA 1: ATCGCCCGCGCACGCA
DNA 2: TGCGTGCGCGGGCGAT
B3: binds (P150 721-860 (WHD) [2]).

B4: 58 bp dsDNA (dsDNA)
DNA 1: ATACATTTTATGACTGGAAACTTTTTTGTACAACACTCCAATAAACATTTTGATTTTA
DNA 2: TAAAATCAAAATGTTTATTGGAGTGTTGTACAAAAAAGTTTCCAGTCATAAAATGTAT
For B4, the Kd (P150 721-860 (WHD) [3]) was 10.4 ± 0.5 µM and the binding result (P150 575-860 (ED + WHD)) was “no binding”.

Source: paper PMC8874411, “Biochemical and Structural Insights into the Winged Helix Domain of P150, the Largest Subunit of the Chromatin Assembly Factor 1”
